Data reported in patent publication US20240076361A1 (EISAI R AND D MANAGEMENT, published 2024).

Molecular target: T1, non-phosphorylated Tau (Tau-441 (2N4R), rPeptide LLC) (human, UniProt P10636 1-758)
T1 construct: also called non-phosphorylated Tau protein (2N4R); recombinant Tau
Experiment: sandwich ELISA: antigen captured by coated anti-Tau antibody BT2, detected with the peroxidase-labelled antibody at 80 ng/mL; antigen concentration varied
Method: Anti-Tau monoclonal antibody BT2 (Thermo Fisher Scientific) was adjusted with 50 mM Tris/HCl (pH 7.5) to a concentration of 1 microgram/mL, and then injected at 100 microliter/well in a Maxisorp cup (NUNC). The cup was placed in a humid box and coated overnight at 4 degrees Celsius. After the antibody solution was removed by aspiration, a blocking solution (5% skimmed milk (FUJIFILM Wako Pure Chemical), 50 mM Tris/HCl (pH 7.5), 150 mM NaCl, 0.1% sodium azide) was injected at 200 microliter/well, followed by blocking at room temperature for 2 hours or at 4 degrees Celsius for one day or more (hereinafter referred to as “BT2 cup”). The test recombinant antibodies: 5F6-4D1, 7G5-4B8, 2H8-1G7, 2H8-1G7(KC14S) and comparator antibodies: PT3 and anti-pT217 Tau polyclonal antibody (Genscript poly; Cat. No. A00896, Genscript) were labeled with peroxidase using a Peroxidase Labeling Kit-NH2 (DOJINDO MOLECULAR TECHNOLOGIES) in accordance with the instruction manual attached to the kit (hereinafter referred to as “peroxidase-labeled pT217 Tau antibodies”). […]

T1 sequence (P10636 other isoform, or with tags, fused parts or gaps limits assumed): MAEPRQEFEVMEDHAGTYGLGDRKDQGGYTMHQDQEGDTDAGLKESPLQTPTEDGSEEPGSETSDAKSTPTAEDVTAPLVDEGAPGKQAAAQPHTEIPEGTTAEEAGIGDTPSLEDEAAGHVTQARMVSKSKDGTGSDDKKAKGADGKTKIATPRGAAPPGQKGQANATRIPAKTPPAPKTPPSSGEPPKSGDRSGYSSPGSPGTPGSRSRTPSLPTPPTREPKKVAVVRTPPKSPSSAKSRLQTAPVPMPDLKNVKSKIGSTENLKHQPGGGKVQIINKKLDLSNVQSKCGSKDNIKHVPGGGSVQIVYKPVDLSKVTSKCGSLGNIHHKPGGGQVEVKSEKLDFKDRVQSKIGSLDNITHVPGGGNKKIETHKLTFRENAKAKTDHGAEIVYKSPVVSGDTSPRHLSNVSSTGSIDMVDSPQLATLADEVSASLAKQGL

B1: 2H8-1G7(KC14S) (antibody, mouse IgG2b, kappa, V domains shown)
VH: EVQLVESGGGLVKPGGSLKLSCAASGFTVSDYGMHWVRQAPEKGLEWIAYISSGSSTIYYVDTVKGRFTISRDNAKNTLFLQMTSLRSEDTAMYYCARRLSIWGTGTTVTVSS
VL: QIVLTQSPAIMSASPGEKVTMTCSASSSVSSMYWYHQKPGSSPRLLIYDTSNLASGVPVRFSGSGSGTSYSLTISRMEAEDAATYYCLQWSSYPLTFGAGTKLELKR
notes: Recombinant mouse IgG2b kappa
B1: no binding (tested: 80000 pg/mL).
